Experimental findings from the supplement of paper PMC12042874 are described below.

± gives the uncertainty stated by the source.

The data set can be described thus: amyloid nucleation score (Sup35N fusion, yeast selection) (log enrichment); library NNK1; higher = more nucleation; inactive = no reads after selection. The essentials: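 Peptides of 20 random codons fused to Sup35N were expressed in psi-negative yeast, induced 24 hours with 100 μM copper sulfate, then grown 7 days at 30°C on medium lacking adenine and uracil. Input and output plasmid inserts were Illumina-sequenced. Nucleation score is the DiMSum log enrichment of output over input reads, centred on the mode score of non-aggregating sequences, excluding sequences with under 100 input reads. Random libraries had three technical output replicates.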
As to RYRRFCFALVYMRKNI, the amyloid nucleation score was -0.184 ± 0.42.

RTCVIVKMNSTIALYLGQKE: the amyloid nucleation score turned out to be 2.52 ± 0.12.

The substance LDVRAIRYILK showed an amyloid nucleation score of -0.252 ± 1.4.

On to WAYVAALRGYCYVGGRYLYT, for which the amyloid nucleation score is -0.91 ± 1.2.

Substance NFHDEV had an amyloid nucleation score of -1.22 ± 1.5.

TGDLGRTGKVTLGTLEDSKI had an amyloid nucleation score of -0.694 ± 0.56.

For FGCSSLCTLSTVEE, the amyloid nucleation score is -1.21 ± 0.64.

MMYSIVRMLAFNAWSMR came in with an amyloid nucleation score of 0.681 ± 0.49.

In the case of KLIVWDKCSTCHSDVVLLFK, the amyloid nucleation score came to 0.734 ± 0.97.

The substance IFLGPVLFVGDTRFCHVLIN displayed an amyloid nucleation score of 7.789 ± 0.049.

The substance YTLILREIYWCC had an amyloid nucleation score of -0.128 ± 0.54.

Regarding AVEVYGVISRKLINVSDRIG, the amyloid nucleation score was determined as 0.588 ± 0.69.

On to PTSSMI, for which the amyloid nucleation score was 0.488 ± 1.

In turn, MVKYPVTKNSSLPCSTRLTF displayed an amyloid nucleation score of 1.01 ± 0.47.

In turn, FRRIFSWACPV gave an amyloid nucleation score of 0.352 ± 0.58.

The substance DSLGGSKSCGSKL registered an amyloid nucleation score of 0.891 ± 0.97.

In turn, RWTEKGK returned an amyloid nucleation score of -0.332 ± 1.9.

For GLLGGIGRRRTMG, the amyloid nucleation score is -0.643 ± 0.46.

As to TLGAYQSCRGNVIMGQGTFV, the amyloid nucleation score worked out at 0.266 ± 0.46.

MTIQVTIGNYLGLVYFFPLS: the amyloid nucleation score is 1.05 ± 0.97.

Substance TIYTSSGVVMALVHRLHLVA returned an amyloid nucleation score of -1.1 ± 0.68.

As for KYWLMSLLAVKPSSRDSYGQ, the amyloid nucleation score is -0.239 ± 0.28.

For RSEGKNMADS, the amyloid nucleation score is -0.46 ± 1.1.

As for RARQNAFREW, the amyloid nucleation score is -0.301 ± 0.35.

Take SSKCDLIDCSSD: the amyloid nucleation score entry is “inactive”.

As to VIHTRGNWSKRHVMIWISES, the amyloid nucleation score was -0.016 ± 1.2.

As to CRTYYCHTHGPAQKDHYDRG, the amyloid nucleation score is -0.78 ± 0.89.

Take KTGARYSLSACYLTRTDYHW: the amyloid nucleation score came to 0.056 ± 0.43.

In turn, SGCPDPW displayed an amyloid nucleation score of -0.047 ± 1.7.

In turn, KTSFSCSIRSSYVDWGLGDS had an amyloid nucleation score of 2.66 ± 0.12.

ARYRYVTVYQV registered an amyloid nucleation score of -0.725 ± 0.35.

In turn, CFVVYGQTPSTVPRINAVLS returned an amyloid nucleation score of 6.46 ± 0.069.

RIGLWCACMCRATTPVRGIE yielded an amyloid nucleation score of -0.317 ± 0.46.

Take CSSIWHCPVYDVITLM: the amyloid nucleation score is 0.282 ± 0.75.

In turn, LSSYGYHMRVDHVTNANPSR yielded an amyloid nucleation score of 0.159 ± 0.43.

Substance IFVALRRD had an amyloid nucleation score of -1.29 ± 1.3.

Take RLPRQYVMG: the amyloid nucleation score was -0.279 ± 0.66.

Consider DFVRMSRPHG, for which the amyloid nucleation score came to 0.563 ± 0.51.

As to RVCMLLYCQVKVGTVN, the amyloid nucleation score amounted to 2.3 ± 0.11.

SIFVFRLYFLYGLV returned an amyloid nucleation score of 0.606 ± 0.44.

On to NKDYMVVLTDFS, for which the amyloid nucleation score was -0.326 ± 0.2.

RERIECDWTGLAFGDPKVSV yielded an amyloid nucleation score of -0.646 ± 2.1.

Take SICSFLFR: the amyloid nucleation score is 3.69 ± 0.093.

In turn, QRSLMDAPMGKPRESNLLLV displayed an amyloid nucleation score of 1.1 ± 0.57.

As for MVRWFWVVGHQVFTYVRLWR, the amyloid nucleation score is -0.076 ± 0.74.

Turning to RFDSFAMVYDNMWVRCLNVR, the amyloid nucleation score is -0.303 ± 0.53.

For the substance TWSYGLASDEVGPDAVVIVY, the amyloid nucleation score amounted to 0.495 ± 1.

For SSLPRYNPR, the amyloid nucleation score entry is “inactive”.

For NGQRDIEYLSLFSPVGTMNS, the amyloid nucleation score is -0.518 ± 0.43.

As to WFFVDSVYIRNKFSLEKGSA, the amyloid nucleation score was 7.494 ± 0.052.

With KKFFKYELFEVCIFLGYRCS, the amyloid nucleation score stood at 0.493 ± 1.2.

On to SPLMRFFSTDSGARIFLNMS, for which the amyloid nucleation score is -0.388 ± 0.52.

LLSFAITCDSPVSRSVLFIR gave an amyloid nucleation score of -0.53 ± 0.58.

VICSHLVSITYYLY yielded an amyloid nucleation score of 3.59 ± 0.057.

Regarding AYETLR, the amyloid nucleation score was -0.385 ± 0.59.

Turning to ICSWVHDQWAFYYISLYYVK, the amyloid nucleation score was -1.2 ± 0.74.

For the substance KLVLSYRYNDG, the amyloid nucleation score was 2.17 ± 0.18.

On to MVDSVMD, for which the amyloid nucleation score was -0.21 ± 0.79.

For FDNAPMSDLG, the amyloid nucleation score is 0.405 ± 0.72.

In turn, WDKFC displayed an amyloid nucleation score of -1.16 ± 0.88.

LVGGCPLTRGRGYGRPRNGG returned an amyloid nucleation score of -1.9 ± 2.7.

As to QKWNMFVSSWVYDRRRTRGC, the amyloid nucleation score is 0.301 ± 1.1.

Regarding MNDVNLFMEYNKSFYVDFYM, the amyloid nucleation score was determined as 1.61 ± 0.15.

Regarding SSNWFPR, the amyloid nucleation score was -0.07 ± 0.59.

As for LEGHNCADQLLSFLTSSYSL, the amyloid nucleation score is 1.34 ± 0.44.

Substance VWARVMNAYFDTSH came in with an amyloid nucleation score of -1.22 ± 2.4.

The substance LLFRNYHMGDLEHLFIFYWY showed an amyloid nucleation score of 0.475 ± 0.56.

The substance RSRLPGCDFVPLYEVH gave an amyloid nucleation score of -0.472 ± 0.44.

Turning to PYHEMGIYYLGGLYSK, the amyloid nucleation score was found to be 0.743 ± 1.1.

In turn, NADDISVRTGNTQESLSW returned an amyloid nucleation score of 0.275 ± 1.2.

For the substance TVHSLV, the amyloid nucleation score is -0.276 ± 0.38.

Consider LDVLLLLMDCSRYPKIKGGI, for which the amyloid nucleation score was -0.012 ± 0.43.

As for YFIARREQFWIMLPGELALE, the amyloid nucleation score was -0.756 ± 1.7.

WIWYFLGRGGYVACRSTKVW yielded an amyloid nucleation score of 0.016 ± 1.2.

For the substance FRTHRPTIFHFIGMRLRTLA, the amyloid nucleation score was determined as 0.399 ± 0.91.

The substance RKSVKRVAKGGNS gave an amyloid nucleation score of 3.82 ± 0.14.

The substance IVDCYSLDRYRVLLWSS showed an amyloid nucleation score of 0.566 ± 0.36.

Turning to MNGYLRLHSDTNCSCC, the amyloid nucleation score entry is “inactive”.

The substance VNGWARSMGGFLSCNSQRFG gave an amyloid nucleation score of -0.221 ± 0.65.

Regarding SGAPYS, the amyloid nucleation score worked out at 0.185 ± 0.34.

Turning to THSIF, the amyloid nucleation score entry is “inactive”.

Substance SKSYLVFDNISRRH displayed an amyloid nucleation score of -1.11 ± 0.7.

As to PCTLGFVSSPSDG, the amyloid nucleation score turned out to be 0.524 ± 0.46.

For ASVFLNQLLPCNYSAVRMGS, the amyloid nucleation score worked out at 0.134 ± 0.84.

Consider FVIDACIFC, for which the amyloid nucleation score was determined as 9.445 ± 0.071.

IWCHRSGRLFPSMLLKYYRD gave an amyloid nucleation score of -0.766 ± 1.7.

SCLNNKSPSLI: the amyloid nucleation score was -0.342 ± 0.25.

Take RIRVDVEWSARRPG: the amyloid nucleation score is 2.19 ± 0.17.

The substance IVEMHYMAGWTGMEMMSWAH yielded an amyloid nucleation score of 0.413 ± 1.

VHSVLKWLRWDSIPCIVLIR gave an amyloid nucleation score of -0.487 ± 0.32.

Turning to FYVLATFSNC, the amyloid nucleation score turned out to be 0.618 ± 0.4.

On to EGHWGFWPIGSFTCTSFLVY, for which the amyloid nucleation score is 0.86 ± 0.58.

NFFDLLYFL gave an amyloid nucleation score of 0.175 ± 0.82.

Substance RLRWI had an amyloid nucleation score of -0.057 ± 0.23.

In turn, DAMFLL came in with an amyloid nucleation score of -0.358 ± 0.31.

Substance DWVVFWIRSFILSPPRAHQN showed an amyloid nucleation score of 0.025 ± 0.41.

In turn, YLFSFWFPRYRHVIFIGYTL displayed an amyloid nucleation score of 0.531 ± 0.53.

As to RLVLILSYYVRWNWGREDN, the amyloid nucleation score entry is “inactive”.

Regarding RHLLSSYRGFLLEQVSASNS, the amyloid nucleation score was 1.51 ± 0.38.

For PYVSHCGIHFFGWFSWSRAS, the amyloid nucleation score amounted to 0.583 ± 0.46.

Substance HSAITNCRRVVTALIYRRVM registered an amyloid nucleation score of -0.875 ± 2.4.

With GGQSS, the amyloid nucleation score was determined as 2.97 ± 0.16.

In the case of TNINSSTDKRLPTET, the amyloid nucleation score was -0.013 ± 0.5.

As to MWGFWTFFDGLAYPFVMHKT, the amyloid nucleation score is 0.054 ± 0.53.

Regarding NFVARSLLPNILAGLRGTGC, the amyloid nucleation score is -0.139 ± 0.59.

As for ILTRRSLLRLWIIISDKSFR, the amyloid nucleation score was -0.695 ± 1.4.
